Consider one substance from paper PMC9630439.

“And” between values parts separate entries of the source, which are not always exact repeats. Identical values can stand only once.

The target in test [1] is fully assembled GPa3b17 TCR (TCRαβ/CD3δγε2ζ2 complex, CD3 cytosolic domains truncated, CD3-δ tagged with GFP2) (human) (UniProt P07766). Nature of the test: flow cytometry on cells; CHO cells transduced with lentivirus combinations, stained with Alexa Fluor 647-labelled gp100/HLA-A2, 30 min at 4 °C in the dark. A general note: A flow cytometer gives signals particle by particle.

In test [2] the target is GPa3b17 TCR complex expressed without CD3-ζ (TCR-αβ/CD3-δγε2) (human) (UniProt P07766). Described as above.

Take “gp100/HLA-A2 (soluble gp100 peptide / HLA-A*02:01 / β2-microglobulin monomer with C-terminal HPC-4 epitope) (from UniProt P61769 22-119) (peptide-MHC)”: the median fluorescence intensity following pMHC staining in test [1] is 135000 and 144000; in test [2], 116000.
